In the assay the target is T1, ASK1-KR (human ASK1 with lysine 709 at the ATP-binding site replaced with arginine) (human, UniProt Q99683 1-1374).
T1 construct: Bait in the yeast two-hybrid screen (Brent's system); also called bait
T1 sequence (looked up): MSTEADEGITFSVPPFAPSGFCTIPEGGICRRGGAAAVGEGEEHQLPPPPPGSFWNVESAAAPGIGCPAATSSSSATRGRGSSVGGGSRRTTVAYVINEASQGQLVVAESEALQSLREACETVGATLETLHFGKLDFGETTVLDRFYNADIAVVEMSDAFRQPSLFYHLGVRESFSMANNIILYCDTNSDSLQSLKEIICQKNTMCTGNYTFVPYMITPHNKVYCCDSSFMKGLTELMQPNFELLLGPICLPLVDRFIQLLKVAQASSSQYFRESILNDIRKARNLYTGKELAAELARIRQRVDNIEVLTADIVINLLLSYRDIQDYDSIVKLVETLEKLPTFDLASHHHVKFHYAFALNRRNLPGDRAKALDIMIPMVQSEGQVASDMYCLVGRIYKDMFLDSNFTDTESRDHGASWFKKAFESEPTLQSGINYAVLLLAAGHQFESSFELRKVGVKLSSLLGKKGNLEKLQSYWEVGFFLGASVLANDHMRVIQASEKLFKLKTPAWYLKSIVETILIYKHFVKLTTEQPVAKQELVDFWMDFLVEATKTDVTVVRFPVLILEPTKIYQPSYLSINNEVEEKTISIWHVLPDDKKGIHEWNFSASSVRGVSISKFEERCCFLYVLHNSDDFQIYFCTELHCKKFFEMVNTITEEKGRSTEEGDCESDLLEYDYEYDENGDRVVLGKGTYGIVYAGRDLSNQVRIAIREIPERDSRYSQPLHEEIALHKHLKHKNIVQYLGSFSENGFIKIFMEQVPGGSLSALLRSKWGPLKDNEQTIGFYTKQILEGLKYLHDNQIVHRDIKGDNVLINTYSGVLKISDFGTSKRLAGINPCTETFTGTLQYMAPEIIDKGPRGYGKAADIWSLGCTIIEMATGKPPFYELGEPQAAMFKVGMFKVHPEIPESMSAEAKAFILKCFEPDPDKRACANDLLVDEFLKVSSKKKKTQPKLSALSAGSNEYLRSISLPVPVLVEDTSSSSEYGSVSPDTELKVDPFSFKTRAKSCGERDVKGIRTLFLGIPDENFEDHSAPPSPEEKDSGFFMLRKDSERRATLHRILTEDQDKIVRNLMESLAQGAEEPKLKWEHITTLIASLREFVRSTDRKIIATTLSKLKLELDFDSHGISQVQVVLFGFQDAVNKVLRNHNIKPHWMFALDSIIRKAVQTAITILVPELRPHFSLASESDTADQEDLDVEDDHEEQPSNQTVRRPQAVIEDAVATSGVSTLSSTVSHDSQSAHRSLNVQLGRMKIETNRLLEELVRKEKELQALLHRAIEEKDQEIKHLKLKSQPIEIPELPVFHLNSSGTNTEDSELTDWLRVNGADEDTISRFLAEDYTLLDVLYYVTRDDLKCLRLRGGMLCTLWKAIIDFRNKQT
The assay can be described thus: yeast two-hybrid (Brent's system), ASK1-KR as bait, fetal human brain expression library as prey; positive clone. The procedure:
To identify the ASK1-binding protein, screening was conducted by the yeast two-hybrid method using Brent's system [Zervos et al., Cell, Vol. 72, p. 223-232, 1993; Gyuris et al., Cell, Vol. 75, p. 791-803, 1993] with ASK1-KR, prepared by replacing lysine (K) at the ATP-binding site (position 709) in the kinase domain of human ASK1 with arginine (R), as a bait and an expression library of fetal human brain origin as a prey. As a result, about 1200 positive clones were obtained. Database search of one of them based on its base sequence identified it as a portion of the protein coding region of the gene designated as “PGR1” (a portion corresponding to amino acid positions 35 to 127). […] Since this protein was identified as an ASK1-binding protein, it was designated as ASK1 binding protein 1 (ABP1).

The results in this text go back to US20060240023A1 (Takeda / Millennium, published 2006).

B1: ABP1 (PGR1) fragment, amino acid positions 35 to 127, positive clone of the two-hybrid screen (other)
chain: MREDIASLTREHGRAYLRNRSKLWEMDNMLIQIKTQVEASEESALNHLQNPGDAAEGRAAKRCEKAEEKAKEIAKMAEMLVELVRRIEKSESS
notes: Prey from an expression library of fetal human brain origin; also called PGR1 (a portion corresponding to amino acid positions 35 to 127); prey clone
B1: the binding result is listed as “binds”.
